Molecular target: mature METTL8-Iso1 (Met1-Gln22 deleted) with a C-terminal His6 tag (human)
Assay: SEC

Substance: mature METTL8-Iso1 (Met1-Gln22 deleted) with a C-terminal His6 tag (enzyme)
- stoichiometry N: 8

— publication PMC9023283
